Reference: patent US20240216425A1, “Engineered Macrophages for Cancer Immunotherapy” (The Trustees of the University of Pennsylvania, priority 2022, published 2024)
“Also recorded” adds a separate entry of the source. Where two headings read alike, the source gives them in different places.

Key:
B16 tumoroids = assay type: cell-based, mouse
Experimental: (§1) Tumoroids. To generate surfaces conducive to B16 tumoroid formation, 96-well plates (Greiner Bio-One 650161) were either coated with 70 μL of 2% agarose in water or PBS or, more commonly, treated for 20 min with 100 μL of anti-adherence rinsing solution (StemCell Technologies 07010). The wells were washed with PBS, and then blocked with 0.5-1% (w/v) bovine serum albumin (BSA, Sigma) 37° ° C. for 1 h. B16 were detached by brief trypsinization, resuspended in RPMI supplemented with 10% FBS, 1× non-essential amino acid solution (Gibco 11140050) and 1 mM sodium pyruvate (Gibco 11360070) at a concentration of 1×103 or 1×10^4 per mL, and added to passivated wells in a volume of 100 μL. […] For tumoroid disaggregation studies, EDTA and EGTA were added in PBS to obtain a final concentration of 2 mM, and in some cases magnesium sulphate was also added for a final concentration of 5 mM Mg2+. Latrunculin A (Invitrogen L12370) dissolved at 1 μM in DMSO was further diluted in PBS and added to obtain a final concentration of 1 μM. For phagocytosis versus growth studies, CellTracker Deep Red-labeled BMDMs and antibodies (final concentration 20 μg/mL anti-Tyrp1 and/or 20 μg/mL anti-CD47 or 10 μg/mL anti-SIRPα) or mouse serum (final concentration 1:200) were added 24 h later in a volume of 20 μL RPMI growth media with 120 ng/mL M-CSF. For myosin-II inhibition studies, 20 μM blebbistatin (MilliporeSigma 203389) or an equal volume of DMSO vehicle was added to B16 tumoroids for 1 h prior to addition of BMDMs. Tumoroids were imaged on the Olympus IX microscope with 20×/0.4 NA, 10×/0.3 NA, or 4×/0.13 NA objectives. Tumoroid areas were measured in Fiji/ImageJ after thresholding GFP fluorescence using built-in thresholding algorithms and manually adjusting the threshold as needed.

[1] = molecular target: CD47 on B16-F10 mouse melanoma cells (also on RM-9 mouse prostate cancer cells) (mouse) (UniProt Q61735); test: flow cytometry titration on B16 cells, secondary antibody AF647, median fluorescence fit to y=A*x/(K+x); apparent K on cells
[2] = molecular target: Tyrp1 (tyrosinase-related protein 1) on B16-F10 mouse melanoma cells (mouse) (UniProt P07147); test: as above
CD47 KO B16 tumoroids = test: Immuno-tumoroid growth with bone marrow-derived macrophages; assay type: cell-based, mouse; conditions: for tumoroid elimination and macrophage clusters: macrophages pre-treated with cytokine (20 ng/mL, 48 h)
Experimental: Tumoroids. To generate surfaces conducive to B16 tumoroid formation, 96-well plates (Greiner Bio-One 650161) were either coated with 70 μL of 2% agarose in water or PBS or, more commonly, treated for 20 min with 100 μL of anti-adherence rinsing solution (StemCell Technologies 07010). The wells were washed with PBS, and then blocked with 0.5-1% (w/v) bovine serum albumin (BSA, Sigma) 37° ° C. for 1 h. B16 were detached by brief trypsinization, resuspended in RPMI supplemented with 10% FBS, 1× non-essential amino acid solution (Gibco 11140050) and 1 mM sodium pyruvate (Gibco 11360070) at a concentration of 1×103 or 1×10^4 per mL, and added to passivated wells in a volume of 100 μL. A single aggregate of B16 cells formed in each well, typically within 12 h. For tumoroid disaggregation studies, EDTA and EGTA were added in PBS to obtain a final concentration of 2 mM, and in some cases magnesium sulphate was also added for a final concentration of 5 mM Mg2+. Latrunculin A (Invitrogen L12370) dissolved at 1 μM in DMSO was further diluted in PBS and added to obtain a final concentration of 1 μM. For phagocytosis versus growth studies, CellTracker Deep Red-labeled BMDMs and antibodies (final concentration 20 μg/mL anti-Tyrp1 and/or 20 μg/mL anti-CD47 or 10 μg/mL anti-SIRPα) or mouse serum (final concentration 1:200) were added 24 h later in a volume of 20 μL RPMI growth media with 120 ng/mL M-CSF. For myosin-II inhibition studies, 20 μM blebbistatin (MilliporeSigma 203389) or an equal volume of DMSO vehicle was added to B16 tumoroids for 1 h prior to addition of BMDMs. Tumoroids were imaged on the Olympus IX microscope with 20×/0.4 NA, 10×/0.3 NA, or 4×/0.13 NA objectives. Tumoroid areas were measured in Fiji/ImageJ after thresholding GFP fluorescence using built-in thresholding algorithms and manually adjusting the threshold as needed.
Statistical analysis and curve fitting. Statistical analyses and curve fitting were performed in Prism v8.4-v9.4 (GraphPad) and MATLAB R2020a (MathWorks). Details for each analysis are provided in figure legends, and exact p values are provided. […]

[3] = tested on: macrophages in CD47 KO tumoroids; test: Macrophage clustering in tumoroids (entropy image analysis, radial profiles, cluster area); assay type: cell-based, mouse; conditions: 2 mM chelator added ~24 h after macrophages and anti-Tyrp1, read 3 h later
Experimental: as §1, with “For phagocytosis versus growth studies, CellTracker Deep Red-labeled BMDMs and antibodies (final concentration 20 μg/mL anti-Tyrp1 and/or 20 μg/mL anti-CD47 or 10 μg/mL anti-SIRPα) or mouse serum (final concentration 1:200) were added 24 h later in a volume of 20 μL RPMI growth media with 120 ng/mL M-CSF. For myosin-II inhibition studies, 20 μM blebbistatin (MilliporeSigma 203389) or an equal volume of DMSO vehicle was added to B16 tumoroids for 1 h prior to addition of BMDMs. Tumoroids were imaged on the Olympus IX microscope with 20×/0.4 NA, 10×/0.3 NA, or 4×/0.13 NA objectives.” left out

macrophage monocultures = test: Macrophage monocultures on non-adhesive surfaces, clustering; assay type: cell-based, mouse; conditions: 20 ng/mL cytokine
Experimental: Bone marrow-derived macrophages (BMDMs). Bone marrow was harvested from donor mice, lysed with ACK buffer (Gibco A1049201) to deplete red blood cells, and cultured on Petri dishes for 7 days in IMDM (Gibco 12440053) supplemented with 10% FBS, 1% P/S, and 20 ng/ml recombinant mouse macrophage colony-stimulating factor (M-CSF, BioLegend 576406). Successful differentiation was confirmed by flow cytometry staining with antibodies against macrophage markers. Cytokine-primed BMDMs were cultured in RPMI growth media+20 ng/ml M-CSF+20 ng/mL IFNγ (BioLegend 575302) or 20 ng/ml IL-4 (BioLegend 574302) for 48 h prior to use in tumoroid assays or prior to analysis of protein expression by flow cytometry. […]
Entropy image analysis. Fluorescence images of CellTracker Deep Red-labeled macrophages were converted to binary images of black cells on a white background using the Otsu threshold algorithm in ImageJ. The number of dark pixels was determined from the image histogram, and the image was saved as a PNG file, which is a form of lossless file compression to determine the compressed file size as a measure of entropy. Random and structured images were generated and analyzed using the Python NumPy and PIL/Pillow packages, respectively.

[4] = 2 mM EDTA or EGTA, 1 μM Latrunculin A

Chain of UniProt P07147 (P07147 25-537): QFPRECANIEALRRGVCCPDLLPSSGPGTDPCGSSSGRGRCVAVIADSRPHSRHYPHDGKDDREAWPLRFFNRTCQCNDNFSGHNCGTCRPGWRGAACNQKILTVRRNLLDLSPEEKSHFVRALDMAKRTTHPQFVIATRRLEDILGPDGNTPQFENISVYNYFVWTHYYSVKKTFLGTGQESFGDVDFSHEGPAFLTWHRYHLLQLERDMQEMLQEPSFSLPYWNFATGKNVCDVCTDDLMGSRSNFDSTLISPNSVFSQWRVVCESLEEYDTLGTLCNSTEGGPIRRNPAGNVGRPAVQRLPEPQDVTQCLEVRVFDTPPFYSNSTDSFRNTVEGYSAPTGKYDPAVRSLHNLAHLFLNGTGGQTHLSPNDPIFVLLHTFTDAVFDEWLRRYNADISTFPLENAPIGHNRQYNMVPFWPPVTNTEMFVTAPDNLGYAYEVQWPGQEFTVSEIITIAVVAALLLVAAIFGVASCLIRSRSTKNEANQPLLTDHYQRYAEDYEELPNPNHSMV
Chain of UniProt Q61735 (Q61735 19-303): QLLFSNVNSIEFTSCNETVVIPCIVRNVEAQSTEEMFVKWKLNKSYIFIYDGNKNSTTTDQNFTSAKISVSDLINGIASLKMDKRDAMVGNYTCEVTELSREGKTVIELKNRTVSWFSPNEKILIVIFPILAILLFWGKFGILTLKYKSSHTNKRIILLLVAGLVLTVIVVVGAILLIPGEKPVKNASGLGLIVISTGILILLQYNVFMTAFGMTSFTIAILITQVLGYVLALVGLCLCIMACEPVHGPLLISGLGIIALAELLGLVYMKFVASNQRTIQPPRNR

Molecule: O=C(O)CN(CCOCCOCCN(CC(=O)O)CC(=O)O)CC(=O)O [EGTA]
- tumoroid projected area / B16 aggregates (B16 tumoroids; [4]): did disrupt B16 aggregates; also recorded: rapid (<1 h) increase

Molecule: anti-mouse CD47 clone MIAP301 (BioXCell BE0270) (antibody)
- Kd [1]: 25 nM

Molecule: C/C1=C/C(=O)O[C@@H]2C[C@@H](CC[C@H](C)/C=C\C=C\CC1)O[C@@](O)([C@@H]1CSC(=O)N1)C2 [Latrunculin A]
- tumoroid projected area / B16 aggregates (B16 tumoroids; [4]): rapid (<1 h) increase

Molecule: anti-mouse/human Tyrp1 clone TA99 (BioXCell BE0151) (antibody)
- Kd [2]: 47 nM

Molecule: Cc1ccc2c(c1)C(=O)C1(O)CCN(c3ccccc3)C1=N2 (centres unmarked) [blebbistatin]
- tumoroid growth repression by macrophages (CD47 KO B16 tumoroids; 20 μM): not affected

Molecule: O=C(O)CN(CCN(CC(=O)O)CC(=O)O)CC(=O)O [EDTA]
- macrophage cluster projected area / disaggregation of macrophages [3]: rapid disaggregation of macrophages; also recorded: increases significantly
- tumoroid projected area / B16 aggregates (B16 tumoroids): rapid (<1 h) increase

B1: IL-4: interleukin-4 cytokine used to prime macrophages (BioLegend 574302) (protein, UniProt P07750 21-140, looked up)
Interleukin-4: HIHGCDKNHLREIIGILNEVTGEGTPCTEMDVPNVLTATKNTTESELVCRASKVLRIFYLKHGKTPCLKKNSSVLMELQRLFRAFRCLDSSISCTMNESKSTSLKDFLESLKSIMQMDYS
- tumoroid elimination and macrophage clusters (CD47 KO B16 tumoroids): has the opposite effects and disperses macrophages
- macrophage clustering in monoculture (macrophage monocultures): disperse

B2: IFNγ: interferon-γ cytokine used to prime macrophages (BioLegend 575302) (protein, UniProt P01580 23-155, looked up)
Interferon gamma: HGTVIESLESLNNYFNSSGIDVEEKSLFLDIWRNWQKDGDMKILQSQIISFYLRLFEVLKDNQAISNNISVIESHLITTFFSNSKAKKDAFMSIAKFEVNNPQVQRQAFNELIRVVHQLLPESSLRKRKRSRC
- tumoroid elimination and macrophage clusters (CD47 KO B16 tumoroids): promoted
- macrophage clustering in monoculture (macrophage monocultures): cluster
